Three substances from patent US20070280881A1 can be followed below.

The term Kd denotes a measure of binding affinity in units of concentration. The low end stands for higher affinity, the high end for lower affinity.

The test has as its target TAG-72 (tumor associated antigen TAG-72) (human). Put plainly: binding data (text calls it ED50), method not stated; ELISA on TAG-72 coated plates per Example 7. (In general: In an ELISA, binding on a coated surface is turned into a signal by an enzyme label.)

“ddCC49, no spacer (huCC49.ΔCH2, unfractionated mixture of 120 kDa and 240 kDa forms) (antibody)” registered a Kd of 0.8 nM. This lies in the sub-nanomolar range. To “CC49.ΔCH2 [gly/ser] (domain deleted CC49 with Gly/Ser spacer) (antibody)” belongs 1.8 nM; to Humanized CC49 IgG (antibody), 2.5 nM.
